In the assay the target is MCMV nuclear capsids (murine cytomegalovirus (MCMV) | murine cytomegalovirus (MCMV), Smith strain). The assay is described as follows: immunoelectron microscopy of purified nuclear capsids; nuclear capsids purified on a sucrose gradient from infected cells, adsorbed on grids, rabbit GFP antiserum and protein A-gold (10 nm); gold beads per capsid counted; WT capsids as background.

Among the data in paper PMC3394720 are gold beads per capsid (anti-GFP immunogold) (gold beads per capsid) values, retold here.

Turning to “S-GFP-SCP fusion protein expressed ectopically from recombinant MCMV”, the gold beads per capsid (anti-GFP immunogold) (gold beads per capsid) was determined as 15.
